1 molecule from patent US20240181125A1 (WASHINGTON UNIVERSITY, published 2024) can be followed below.

Assay [1] deals with T1, TGFβ receptor II (TβR2) on human dermal fibroblasts (HDFs) (human, UniProt P37173 23-567).
T1 construct: whole, on cells; Endogenous receptor on HDFs cultured at 4.5 g/L glucose; also called TGFβRII
Description: immunofluorescence of HDFs with anti-TβR2 antibody and FITC signal of the peptide.

In assay [2] the target is T2, TGFβ receptor II (TβR2), R&D, coated on ELISA plate.
T2 construct: Bought protein (R&D), coated at 20 nM; also called TGFβRII; TβRII
T2 sequence (P37173 whole entry): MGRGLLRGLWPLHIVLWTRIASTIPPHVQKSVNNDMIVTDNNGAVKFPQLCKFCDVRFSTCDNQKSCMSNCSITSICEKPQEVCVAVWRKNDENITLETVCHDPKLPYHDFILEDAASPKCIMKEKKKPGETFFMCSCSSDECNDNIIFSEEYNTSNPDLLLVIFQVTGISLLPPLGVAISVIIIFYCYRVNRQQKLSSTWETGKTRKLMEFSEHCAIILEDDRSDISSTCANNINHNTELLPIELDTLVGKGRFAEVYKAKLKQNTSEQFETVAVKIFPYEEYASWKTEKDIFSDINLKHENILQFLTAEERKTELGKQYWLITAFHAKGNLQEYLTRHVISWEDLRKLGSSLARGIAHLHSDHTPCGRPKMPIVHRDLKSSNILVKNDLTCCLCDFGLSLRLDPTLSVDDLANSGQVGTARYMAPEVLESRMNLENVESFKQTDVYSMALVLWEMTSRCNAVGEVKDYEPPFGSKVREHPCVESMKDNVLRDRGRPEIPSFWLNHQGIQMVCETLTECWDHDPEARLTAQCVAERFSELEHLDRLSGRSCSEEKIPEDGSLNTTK
The experiment in a line: ELISA-like binding assay, receptor coated on plate, FITC fluorescence of bound peptide. The source says:
We synthesized a peptide […]-FITC (PTβR2I), based on the sequence from a phage display library that binds specifically to […] and interactions between TβR2 and TGFβ1.63-65 We first examined the specific binding of PTβR2I with TβR2 using an ELISA-like binding assay. TGFβ receptor I (TβR1), TGFβ receptor III (TβR3), and IgG were used as controls. […] This finding was further validated on the cellular level. We used human dermal fibroblasts (HDFs) to study the binding affinity of PTβR2I to TβR2 under a glucose level of 4.5 g/L, which mimics the hyperglycemic conditions of diabetes. With PTβR2I added, the HDF binding sites on HDF of TβR2 were occupied, so the TβR2 could not be detected by immunofluorescence (FIG. 5F).
To test the ability of PTβR2I to bind to TβR2, a binding assay was performed. TβR1, TβR3, and IgG were used as controls. In brief, ELISA plates (Costar) were coated with 20 nM of TβR2 (R&D), TβR1 (R&D), or IgG (R&D) and incubated at 4° C. overnight. The plate was blocked with Tris-buffered Saline (TBS) containing 5% bovine serum albumin (BSA) for 1 hour. Then PTβR2I (0.5 μg/mL) was added to the plate and incubated for 2 hours. The fluorescence intensity was read by a microplate reader (Molecular Devices) with a predefined wavelength (excitation/emission=485/535 nm).

Primed or numbered codes have the meaning given here. Ends that are not written are not given here. FITC′ = not defined here

In general, Kd refers to the free concentration of one partner at which half of the binding sites on the other are occupied at equilibrium, for simple one-to-one binding. A high value points to a looser complex.

T1 sequence (P37173 23-567): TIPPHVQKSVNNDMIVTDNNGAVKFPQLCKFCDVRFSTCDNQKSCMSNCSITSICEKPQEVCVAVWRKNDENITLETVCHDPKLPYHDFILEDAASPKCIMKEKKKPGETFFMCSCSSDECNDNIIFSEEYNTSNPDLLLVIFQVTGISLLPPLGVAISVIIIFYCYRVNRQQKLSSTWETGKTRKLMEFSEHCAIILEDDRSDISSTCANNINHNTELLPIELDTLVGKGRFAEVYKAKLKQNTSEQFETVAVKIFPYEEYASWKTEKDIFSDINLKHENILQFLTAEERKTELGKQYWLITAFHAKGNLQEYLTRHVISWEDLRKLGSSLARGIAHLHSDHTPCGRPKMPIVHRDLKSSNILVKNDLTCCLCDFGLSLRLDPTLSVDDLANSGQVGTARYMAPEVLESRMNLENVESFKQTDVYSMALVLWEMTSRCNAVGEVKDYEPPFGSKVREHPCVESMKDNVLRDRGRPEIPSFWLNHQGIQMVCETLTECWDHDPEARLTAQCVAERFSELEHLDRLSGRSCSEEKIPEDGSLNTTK

For the molecule ECGLLPVGRPDRVWRLCK-{FITC′} (cysteine pairing not given here) [peptide-based TGFβ receptor II inhibitor (PTβR2I), ECGLLPVGRPDRVWRLCK-FITC], in assay [1], the binding result is “binds”. Moreover, in assay [2], the affinity, expressed as Kd, was 3.4 µM.
